Measurements: patent publication US12139534B2, “Methods and compositions for decreasing soluble immune receptor CD28” (BIOND BIOLOGICS LTD., priority 2018, dated 2024)

Experiments:
mCD28 [1] = target: T1, mCD28 (Homo sapiens, UniProt P10747); assay: CD86 blocking FACS on HEK293 cells stably transfected with human CD28; format: binding; details: CD86-Fc 5 μg/mL; antibody 20 μg/mL
T1 construct: expressed in transfected cells
Procedure: CD86 blocking FACS—0.5×10^6 HEK293 cells stably transfected with human CD28 were incubated with 5 μg/mL CD86-Fc (R&D systems, Cat. No. 141-B2) without or with anti CD28 antibodies (20 μg/mL) for 30 min in room temperature. Cells were washed and taken for secondary binding using anti-human heavy and light chains antibody conjugated to fluorophore at 1:5000 dilution for 20 min on ice.

recombinant mouse CD28 = target: T2, recombinant mouse CD28 (Mus musculus, UniProt P31041); assay: Direct ELISA on recombinant mouse CD28; format: binding
T2 construct: ELISA assay on increasing concentrations of mouse sCD28; purchased R&D 483-CD

recombinant human CD28 = target: T3, recombinant human CD28 (Homo sapiens, UniProt P10747); assay: Direct CD28 ELISA on recombinant human CD28; format: binding
T3 construct: recombinant human CD28 lacking the transmembrane and cytoplasmic domains; purchased R&D 342-CD

[2] = tested on: isolated CD3 human T cells; assay: CD3 T cells stimulation with anti-CD3 OKT3, IFN gamma secretion; format: cell-based; details: anti-CD3 stimulation; CD28.2 2.0 μg/mL, antibodies 0.1-10 μg/mL
Procedure: T cells stimulation with OKT3—0.1×10^6 isolated CD3 T cells (from healthy donors) were stimulated with indicated amount of anti-CD3 clone OKT3 for 48-72 hr at 37° C. When stated recombinant human CD80-Fc (2 μg/mL, R&D system) was added in soluble form. Antibodies to CD28 or controls were added at the indicated concentration in soluble form.
CD80 is one of the two main ligands for mCD28 along with CD86. The extracellular domain of CD80 fused to an Fc moiety has been used as an immune stimulatory molecule and is under investigation as a cancer therapy. In order to examine the effect of sCD28 on CD80-Fc efficacy, isolated CD3 human T cells were stimulated with plate bound anti-CD3 antibody (OKT3, 2 μg/mL) in the presence of 2 μg/mL soluble recombinant human CD80-Fc.

sCD28 = assay: Simulated sweeping of soluble CD28 from plasma with antibody coated magnetic beads; parameters: species or system human; details: cancer patient plasma; 0.125-2 μg antibody on beads; 37° C. 2 hours
Procedure: Simulated sweeping of soluble CD28 from plasma of cancer patient. Antibodies or recombinant proteins were coated on tosyl-activated magnetic beads (Invitrogen, Cat. No. DY-14203) as described by manufacturer protocol. […] The mixture was incubated in a thermomixer for 2 hr, 1000 RPM at 37° C., followed by removal of the beads using a DynaMag magnet (Invitrogen, Cat. No. 12321D) and the samples were examined using CD28 specific ELISA.
Varying amounts (0.125-2 μg) of antibodies #1 and #2 were loaded onto tosyl-activated magnetic beads according to the manufacturer's protocol (Thermo Fisher Scientific). The loaded beads were then added to plasma samples from a cancer patient, and the mixture was incubated in a thermomixer at 37° C. for 2 hours at 1000 RPM. The beads were isolated and removed from the plasma with a magnet and the amount of sCD28 remaining in the serum was measured by ELISA.
Antibody #1 was further tested on various cancer samples (melanoma, colorectal and ovarian) and compared to three B7 molecules which are known ligands of CD28. About 1.5 μg of antibody #1, CD80, CD86 and ICOSL were each loaded onto tosyl-activated magnetic beads and the beads were mixed with plasma as before. A colorectal sample (FIG. 16C), as well as two melanoma samples (FIG. 16D-E), an ovarian sample (FIG. 16F) and a sample from a healthy donor (FIG. 16G) were all tested.

mCD28 [3] = target: T1, mCD28; assay: FACS binding to mCD28 on naïve CD3 T cells; details: antibody 20 μg/mL
Procedure: Flow Cytometry—Generally, cells were kept on ice during all steps. Prior to staining, 5×10^5 cells were blocked with 50 μg/mL human IgG (Sigma, Cat. No. 14506) in FACS buffer (PBS with 0.1% BSA) for 15 min. Antibodies were used at concentrations recommended by the manufacturer and incubated for 30 min. in the dark. Incubations were done in a volume of 100 μL in 96-well U bottom plates. Cells were washed twice with 200 μL of FACS buffer and transferred to FACS tubes in 150 μL of FACS buffer for analysis. Cells were analyzed on a Gallios Flow Cytometer (Beckman Coulter) using the Kaluza for Gallios Flow Cytometry Acquisition Software.
Lastly, the ability of antibodies #1-3 to bind to mCD28 at all was examined. While it is not essential that a sCD28 antibody not bind mCD28 it is advantageous. Such an antibody could be used for specific detection of the soluble protein, and if used therapeutically would have no effect on the membranal form. Naïve isolated CD3 T cells were evaluated by FACs to assay mCD28 binding. Cells were incubated with antibodies #1-3 (20 μg/mL dark grey histograms) or isotype controls (mIgG, 20 μg/mL, light grey histograms). Binding detection was performed with Alexa Fluor 647-conjugated goat anti mouse secondary antibody.

T2 sequence (P31041 20-150 limits assumed): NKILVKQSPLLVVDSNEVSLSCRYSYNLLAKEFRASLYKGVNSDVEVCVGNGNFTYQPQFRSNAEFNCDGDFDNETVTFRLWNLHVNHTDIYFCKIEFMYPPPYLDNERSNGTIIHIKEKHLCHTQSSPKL

B1: antibody #2: sCD28 binding (sweeping) antibody; heavy chain SEQ ID NO: 46, light chain SEQ ID NO: 48 (antibody)
heavy: QVQLQQSGAELARPGASVKLSCKASGYTFTSYWMQWIKKRPGQGLEWIGAIYPGDGDTRYTQKFKGKATLTADKSSTTAYMQLSSLASEDSAVYFCARNYRYSSFGYWGQGTLVTVSAAKTTPPSVYPLAPGCGDTTGSSVTLGCLVKGYFPESVTVTWNSGSLSSSVHTFPALLQSGLYTMSSSVTVPSSTWPSQTVTCSVAHPASSTTVDKKLEPSGPISTINPCPPCKECHKCPAPNLEGGPSVFIFPPNIKDVLMISLTPKVTCVVVDVSEDDPDVQISWFVNNVEVHTAQTQTHREDYNSTIRVVSTLPIQHQDWMSGKEFKCKVNNKDLPSPIERTISKIKGLVRAPQVYILPPPAEQLSRKDVSLTCLVVGFNPGDISVEWTSNGHTEENYKDTAPVLDSDGSYFIYSKLNMKTSKWEKTDSFSCNVRHEGLKNYYLKKTISRSPGK
light: DIVMTQSPSSLTVTAGEKVTLSCKSSQSLLNSGNQKNYLTWYQQKPGQPPQLLIYWASTRESGVPDRFTGSGSGTDFTLTISSVQAEDLAVYYCQSDYSYPLTFGAGTKLELKRADAAPTVSIFPPSSEQLTSGGASVVCFLNNFYPKDINVKWKIDGSERQNGVLNSWTDQDSKDSTYSMSSTLTLTKDEYERHNSYTCEATHKTSTSPIVKSFNRNEC
- CD86 binding to mCD28 (mCD28 [1]): none of antibody #1 (FIG. 15B), antibody #2 (FIG. 15C), or antibody #3 (FIG. 15D) blocked binding of CD86 to mCD28
- binding to mouse CD28 (recombinant mouse CD28): able to bind mouse CD28
- relationship of signal to concentration (recombinant human CD28): a linear relationship to increasing antibody concentrations over the entire range examined
- binding to sCD28 (recombinant human CD28; immobilized recombinant human sCD28): much stronger binding to sCD28
- IFNγ secretion (agonism) [2]: no effect on IFN secretion
- removal of sCD28 from plasma (sCD28): capable of binding and removing sCD28 from plasma
- binding to mCD28 on the cell surface (mCD28 [3]): do not bind CD28 on the cell surface
